Data on 2 molecules can be found in paper PMC3119050, “High-Resolution X-Ray Structure of the Trimeric Scar/WAVE-Complex Precursor Brk1” (PLoS ONE, 2011).

Data set [1] deals with the molecule itself. Briefly: AUC; sedimentation equilibrium, 43 µM and 171 µM DdBrk1, PBS, 10°C, 18,000 and 26,000 rpm, absorbance at 280 nm, global fit with a single species.
Data set [2] deals with the molecule itself. Briefly: AUC; sedimentation velocity with fluorescence detection, 8 to 800 nM DdBrk1_488, PBS, 20°C, 50,000 rpm; trimer to monomers.
The target in data set [3] is T1, Scar(1-225)/AbiA(1-149)/DdBrk1-complex (Dictyostelium discoideum, UniProt Q54NF8 1-225; Q55FT9 1-149; Q54X65 1-68).
T1 construct: AbiA (Abi) of Dictyostelium discoideum, residues 1-149, untagged; remnant after PreScission cleavage; Brk1 of Dictyostelium discoideum, 68 residues; In the exchange experiment the unlabelled DdBrk1 chain of this complex is replaced by DdBrk1_488; also called Scar/AbiA/DdBrk1 subcomplex; source: E. coli BL21 DE3, coexpressed, purified (glutathione sepharose, PreScission cleavage, Superdex-S75); …
T1 sequence 1: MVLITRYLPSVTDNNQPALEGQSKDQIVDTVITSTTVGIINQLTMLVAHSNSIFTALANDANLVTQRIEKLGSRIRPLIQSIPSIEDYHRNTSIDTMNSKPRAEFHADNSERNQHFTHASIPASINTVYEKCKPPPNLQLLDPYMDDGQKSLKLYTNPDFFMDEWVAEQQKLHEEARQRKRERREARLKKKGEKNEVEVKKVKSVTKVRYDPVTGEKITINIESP
T1 sequence 2: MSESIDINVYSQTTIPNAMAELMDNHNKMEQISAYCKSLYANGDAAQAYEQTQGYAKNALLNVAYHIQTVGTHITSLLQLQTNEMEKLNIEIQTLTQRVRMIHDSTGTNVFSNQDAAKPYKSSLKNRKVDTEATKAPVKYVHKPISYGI
T1 sequence 3: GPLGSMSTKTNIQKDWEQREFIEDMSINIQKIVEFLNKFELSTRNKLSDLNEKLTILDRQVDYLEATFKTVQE
Briefly: SEC; 100 nM DdBrk1_488 incubated with the unlabelled complex (1.4 µM MBP-DdBrk1) for two hours on ice; Superdex-S200 10/300, PBS, 4°C, absorbance at 488 nm and 280 nm. The settings on record: both partners purified. On the technique in general: SEC sorts molecules by how far they enter the pores of the column.

Where a chain is given by its changes, count along the chain named. Names may count otherwise.

B1: Dictyostelium discoideum Brk1 (DdBrk1), GST tag removed (natural protein)
chain: T1 sequence 3
notes: extra amino acids left at the N-terminus after PreScission cleavage of the GST tag; Brk1 (HSPC300 ortholog) of Dictyostelium discoideum, 68 residues; Calculated molar mass 8.61 kg/mol per chain; homotrimer by sedimentation equilibrium; also called DdHSPC300; HSPC300; source: E. coli BL21 DE3, purified (glutathione sepharose, PreScission cleavage, Mono Q, Superdex-S75); not shown: GST, N-terminal, …
Turning to B1, the “stoichiometry N” value in data set [1] was determined as 3.

B2: DdBrk1_488 (DdBrk1 mutant M1C labelled with Alexa 488) (natural protein, Dictyostelium discoideum)
chain: T1 sequence 3 with M6C
modifications: Alexa 488 (Alexa-488 Fluor C5 maleimide) on the cysteine that replaces methionine 1
notes: extra amino acids left at the N-terminus after PreScission cleavage of the GST tag; Brk1 of Dictyostelium discoideum, 68 residues, first methionine replaced by cysteine; Trimer at the highest concentrations examined; dissociates in the lower nanomolar range; also called DdBrk1 M1C; DdBrk1_M1C; not shown: GST, N-terminal, cleaved
As for B2, the “stoichiometry N” value in data set [2] amounted to 3. Further, the binding result in data set [3] is “binds”.

The stoichiometry N is the number of molecules, sites or subunits per partner or assembly.
